Where “and” joins values, the source holds several entries; their conditions need not be identical. Identical values can stand only once.
Assays:
Human trkC (KIRA assay) [1] = biological target: T1, Human trkC (KIRA assay) (human, UniProt Q16288 32-839, limits assumed); assay: cell-based or functional assay
[2] = biological target: Rat trkC on trigeminal neurons (rat, UniProt Q03351 32-864); assay: cell-based or functional assay
[3] = biological target: T2, Human trkC-Fc fusion protein (human, UniProt Q16288 32-429); assay: BIAcore SPR
T2 construct: Immobilised on CM5 chip for BIAcore; also called htrkC; not shown: Fc part not described

[4] = biological target: T2, Human trkC-Fc fusion protein; assay: BIAcore SPR, Fab on human trkC
Description: (§1) Affinities of anti-trkC Fabs and monoclonal antibodies were determined using the BIAcore 3000™ surface plasmon resonance (SPR) system (BIAcore, INC, Piscaway N.J.). CM5 chips were activated with N-ethyl-N′-(3-dimethylaminopropyl)-carbodiimide hydrochloride (EDC) and N-hydroxysuccinimide (NHS) according to the supplier's instructions. Human or rat trkC-Fc fusion protein was diluted into 10 mM sodium acetate pH 5.0 and injected over the activated chip at a concentration of 0.005 mg/mL. Using variable flow time across the individual chip channels, two ranges of antigen density were achieved: 200-400 response units (RU) for detailed kinetic studies and 500-1000 RU for screening assays. The chip was blocked with ethanolamine. […] HBS-EP buffer (0.01M HEPES, pH 7.4, 0.15 NaCl, 3 mM EDTA, 0.005% Surfactant P20) was used as running buffer for all the BIAcore assays. […] The concentrations of the Fab proteins are determined by ELISA and/or SDS-PAGE electrophoresis using a Fab of known concentration (as determined by amino acid analysis) as a standard. Kinetic association rates (kₒₙ) and dissociation rates (koff) are obtained simultaneously by fitting the data to a 1:1 Langmuir binding model (Karlsson, R. Roos, H. Fagerstam, L. Petersson, B. (1994). Methods Enzymology 6. 99-110) using the BlAevaluation program. Equilibrium dissociation constant (KD) values are calculated as koff/kₒₙ.
(§2) We prepared antibody clones bearing the CDR and/or framework region substitution mutations shown in Table 1 and determine KD and other kinetic parameters using BIAcore analysis as described herein.

[5] = biological target: T2, Human trkC-Fc fusion protein; assay: BIAcore SPR; value used in the footnote to calculate KD of the mutants
Human trkC (KIRA assay) [6] = biological target: T1, Human trkC (KIRA assay); assay: cell-based or functional assay; remark: listed apart in the source
Rat trkA = biological target: T3, Rat trkA (rat, UniProt P35739 33-418, limits assumed); assay: BIAcore SPR
T3 construct: BIAcore essentially as for trkC; construct not described
T3 sequence (P35739 33-418 limits assumed): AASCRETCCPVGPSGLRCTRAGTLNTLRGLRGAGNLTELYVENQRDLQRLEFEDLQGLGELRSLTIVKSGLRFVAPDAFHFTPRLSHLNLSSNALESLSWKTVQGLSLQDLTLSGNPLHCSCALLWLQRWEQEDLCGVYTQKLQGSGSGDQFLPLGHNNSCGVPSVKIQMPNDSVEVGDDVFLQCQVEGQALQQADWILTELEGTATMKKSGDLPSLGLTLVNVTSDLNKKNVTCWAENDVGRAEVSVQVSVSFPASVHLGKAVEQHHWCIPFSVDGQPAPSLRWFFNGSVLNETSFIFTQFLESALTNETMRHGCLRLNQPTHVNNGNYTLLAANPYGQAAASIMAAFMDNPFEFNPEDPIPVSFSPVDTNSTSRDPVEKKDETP

Human trkA = biological target: T4, Human trkA (human, UniProt P04629 33-423, limits assumed); assay: BIAcore SPR
T4 construct: BIAcore essentially as for trkC; construct not described
T4 sequence (P04629 33-423 limits assumed): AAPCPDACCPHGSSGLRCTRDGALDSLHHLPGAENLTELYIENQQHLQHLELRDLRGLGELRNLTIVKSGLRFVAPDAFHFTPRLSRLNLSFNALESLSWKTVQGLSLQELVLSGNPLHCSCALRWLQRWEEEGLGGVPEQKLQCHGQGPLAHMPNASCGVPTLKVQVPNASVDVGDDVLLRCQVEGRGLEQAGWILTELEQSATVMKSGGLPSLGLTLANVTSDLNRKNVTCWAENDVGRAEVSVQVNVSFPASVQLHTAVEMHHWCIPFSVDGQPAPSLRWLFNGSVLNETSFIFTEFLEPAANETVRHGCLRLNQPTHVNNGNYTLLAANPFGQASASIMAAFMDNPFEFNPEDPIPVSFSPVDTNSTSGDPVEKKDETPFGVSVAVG

Human trkB = biological target: T5, Human trkB (human, UniProt Q16620 32-430, limits assumed); assay: BIAcore SPR
T5 construct: BIAcore essentially as for trkC; construct not described
T5 sequence (Q16620 32-430 limits assumed): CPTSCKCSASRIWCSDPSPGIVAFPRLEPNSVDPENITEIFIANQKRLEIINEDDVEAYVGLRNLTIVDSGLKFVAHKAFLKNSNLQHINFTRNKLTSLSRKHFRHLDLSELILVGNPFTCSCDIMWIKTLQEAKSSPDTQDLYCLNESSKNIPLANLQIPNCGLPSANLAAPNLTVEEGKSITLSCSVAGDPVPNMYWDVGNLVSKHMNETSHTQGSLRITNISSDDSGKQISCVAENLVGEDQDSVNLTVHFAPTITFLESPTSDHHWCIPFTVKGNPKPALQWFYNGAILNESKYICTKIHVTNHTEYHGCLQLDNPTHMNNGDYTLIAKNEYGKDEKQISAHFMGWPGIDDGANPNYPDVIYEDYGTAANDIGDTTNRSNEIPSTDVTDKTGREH

Rat trkB = biological target: T6, Rat trkB (rat, UniProt Q63604 32-429, limits assumed); assay: BIAcore SPR
T6 construct: BIAcore essentially as for trkC; construct not described
T6 sequence (Q63604 32-429 limits assumed): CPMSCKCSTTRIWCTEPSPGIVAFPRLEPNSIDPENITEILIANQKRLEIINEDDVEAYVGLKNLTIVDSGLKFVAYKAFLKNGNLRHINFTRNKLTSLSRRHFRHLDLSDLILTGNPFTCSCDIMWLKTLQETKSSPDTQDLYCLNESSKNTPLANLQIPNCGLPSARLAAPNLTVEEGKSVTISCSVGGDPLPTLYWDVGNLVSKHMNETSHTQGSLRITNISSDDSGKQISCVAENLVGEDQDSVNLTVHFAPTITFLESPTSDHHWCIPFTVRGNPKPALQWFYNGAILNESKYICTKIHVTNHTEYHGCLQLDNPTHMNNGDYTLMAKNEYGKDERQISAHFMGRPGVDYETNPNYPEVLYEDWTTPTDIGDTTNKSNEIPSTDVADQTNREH

[7] = biological target: T2, Human trkC-Fc fusion protein; assay: BIAcore SPR, Fab over immobilised human trkC-Fc
Description: as §1, §2

[8] = biological target: T2, Human trkC-Fc fusion protein; assay: BIAcore SPR, human trkC-Fc on chip; KD calculated from koff with 2256 kon 5E5 1/Ms
[9] = biological target: T7, Rat trkC-Fc fusion protein (rat, UniProt Q03351 32-429); assay: BIAcore SPR, Fab over immobilised rat trkC-Fc
T7 construct: Immobilised on CM5 chip for BIAcore; not shown: Fc part not described
Description: as §1

T1 sequence (Q16288 32-839 limits assumed): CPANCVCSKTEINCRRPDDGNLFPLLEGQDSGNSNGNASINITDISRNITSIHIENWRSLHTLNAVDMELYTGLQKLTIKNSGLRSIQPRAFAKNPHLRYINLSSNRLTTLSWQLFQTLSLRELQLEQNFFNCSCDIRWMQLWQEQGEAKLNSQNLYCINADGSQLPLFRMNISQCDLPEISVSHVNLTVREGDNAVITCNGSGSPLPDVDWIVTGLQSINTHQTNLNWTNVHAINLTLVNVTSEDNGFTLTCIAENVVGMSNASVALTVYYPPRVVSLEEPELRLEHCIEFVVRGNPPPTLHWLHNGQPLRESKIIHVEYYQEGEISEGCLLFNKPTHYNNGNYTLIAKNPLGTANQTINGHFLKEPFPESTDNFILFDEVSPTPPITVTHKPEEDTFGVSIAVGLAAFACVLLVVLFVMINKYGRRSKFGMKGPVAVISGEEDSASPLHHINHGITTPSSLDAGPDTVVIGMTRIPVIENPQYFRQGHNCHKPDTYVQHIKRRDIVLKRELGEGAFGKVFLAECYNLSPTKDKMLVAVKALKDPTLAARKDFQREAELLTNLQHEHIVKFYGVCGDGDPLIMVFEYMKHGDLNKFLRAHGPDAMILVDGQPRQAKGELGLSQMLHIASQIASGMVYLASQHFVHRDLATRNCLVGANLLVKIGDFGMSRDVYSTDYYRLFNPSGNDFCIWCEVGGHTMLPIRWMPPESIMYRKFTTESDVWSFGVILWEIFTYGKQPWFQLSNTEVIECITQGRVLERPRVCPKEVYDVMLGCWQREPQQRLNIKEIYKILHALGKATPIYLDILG
Chain of Rat trkC on trigeminal neurons (Q03351 32-864): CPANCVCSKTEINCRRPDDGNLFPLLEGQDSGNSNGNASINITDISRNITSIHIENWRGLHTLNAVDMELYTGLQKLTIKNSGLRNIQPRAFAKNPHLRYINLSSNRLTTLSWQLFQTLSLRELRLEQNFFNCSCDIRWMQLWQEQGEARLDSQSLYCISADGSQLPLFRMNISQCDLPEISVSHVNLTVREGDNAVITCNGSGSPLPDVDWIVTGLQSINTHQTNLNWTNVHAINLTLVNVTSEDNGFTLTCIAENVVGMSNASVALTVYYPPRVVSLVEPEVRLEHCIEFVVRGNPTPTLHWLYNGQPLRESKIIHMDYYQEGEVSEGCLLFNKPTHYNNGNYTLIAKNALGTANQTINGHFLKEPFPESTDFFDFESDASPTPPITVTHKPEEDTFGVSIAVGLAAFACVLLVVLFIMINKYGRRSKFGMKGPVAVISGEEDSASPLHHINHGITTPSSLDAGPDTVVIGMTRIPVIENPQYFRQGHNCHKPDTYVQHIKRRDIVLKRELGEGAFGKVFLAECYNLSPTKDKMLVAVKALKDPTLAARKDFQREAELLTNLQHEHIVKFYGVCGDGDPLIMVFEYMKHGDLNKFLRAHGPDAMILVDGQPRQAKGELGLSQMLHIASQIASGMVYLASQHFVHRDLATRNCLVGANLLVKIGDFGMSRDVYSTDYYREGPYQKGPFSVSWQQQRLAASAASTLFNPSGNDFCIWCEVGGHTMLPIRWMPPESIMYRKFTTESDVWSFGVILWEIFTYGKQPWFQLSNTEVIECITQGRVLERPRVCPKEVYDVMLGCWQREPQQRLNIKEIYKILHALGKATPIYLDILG

B1: Mouse monoclonal agonist anti-trkC antibody 2256 (antibody, V domains shown)
VH: QVQLQQPGAELVKPGASVKLSCKASGYTFTSYWMHWVKQRPGQGLEWIGEIYPSNGRTNYNEKFKSKATLTVDKSSSTAYMQLSSLTSEDSAVYYCARKYYYGNSYRSWYFDVWGAGTTLTVS
VL: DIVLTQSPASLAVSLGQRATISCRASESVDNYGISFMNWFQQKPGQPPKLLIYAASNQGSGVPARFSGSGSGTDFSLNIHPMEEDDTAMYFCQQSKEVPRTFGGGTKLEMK
notes: Mouse monoclonal antibody
B1 was tested, and the “EC50, KIRA assay” value (Human trkC (KIRA assay) [1]) was ~40 nM, the “EC50, rat trigeminal neuron survival assay” value [2] was ~5 nM and the Kd [3] was ~62 nM.

B2: Fab 2256 (parent) (Fab, V domains shown)
VH: QVQLQQPGAELVKPGASVKLSCKASGYTFTSYWMHWVKQRPGQGLEWIGEIYPSNGRTNYNEKFKSKATLTVDKSSSTAYMQLSSLTSEDSAVYYCARKYYYGNSYRSWYFDVWGAGTTLTVS
VL: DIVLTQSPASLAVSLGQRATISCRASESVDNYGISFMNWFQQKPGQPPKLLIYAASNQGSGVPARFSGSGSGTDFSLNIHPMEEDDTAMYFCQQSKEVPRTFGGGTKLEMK
B2 gave a Kd [4] of 40 nM, a koff [4] of 0.02 s⁻¹ and a kon [5] of 500000 M⁻¹ s⁻¹.

B3: Antibody A5, full IgG (antibody, V domains shown)
VH: QVQLVQSGAEVKKPGASVKVSCKASGYTFTSYRIHWVRQAPGQGLEWMGEIYPSNARTNYNEKFKSRVTMTRDTSTSTVYMELSSLRSEDTAVYYCARKYYYGNTRRSWYFDVWGQGTTVTVSS
VL: DIQMTQSPSSLSASVGDRVTITCRASESIDNYGISFLAWYQQKPGKAPKLLIYAASNRGSGVPSRFSGSGSGTDFTFTISSLQPEDIATYYCQQSKTVPRTFGQGTKLEIKR
B3 was tested, and the “EC50 (read off the curve), KIRA” value (Human trkC (KIRA assay) [6]) was ~0.1 nM, the “EC50, neuron survival” value [2] was 0.001 nM and the binding result (Rat trkA) was “no binding”. B3: no binding (Human trkA); no binding (Human trkB); no binding (Rat trkB).

B4: Fab clone 129(T8)(H8xE10)(10B) (Fab, V domains shown)
VH: QVQLVQSGAEVKKPGASVKVSCKASGYTFTSYRIHWVRQAPGQGLEWMGEIYPSNSRTNYNEKFKSRVTMTRDTSTSTVYMELSSLRSEDTAVYYCARKYYYGNSRRSWYFDVWGQGTTVTVS
VL: DIQMTQSPSSLSASVGDRVTITCRASESIDNYGISFLAWYQQKPGKAPKLLIYAASNRGSGVPSRFSGSGSGTDFTFTISSLQPEDIATYYCQQSKTVPRTFGQGTKLEIKR
Binder B4 has a koff [7] of 0.0008 s⁻¹, a Kd [8] of 1.6 nM and a koff [9] of 0.01 s⁻¹.

B5: Fab clone 129(T8)(H8xE10) (Fab, V domains shown)
VH: QVQLVQSGAEVKKPGASVKVSCKASGYTFTSYRIHWVRQAPGQGLEWMGEIYPSNSRTNYNEKFKSRATMTGDKSTSTVYMELSSLRSEDTAVYYCARKYYYGNSRRSWYFDVWGQGTTVTVS
VL: DIQMTQSPSSLSASVGDRVTITCRASESIDNYGISFLAWYQQKPGKAPKLLIYAASNRGSGVPSRFSGSGSGTDFTFTISSLQPEDIATYYCQQSKTVPRTFGQGTKLEIKR
B5 gave a koff [7] of 0.001 s⁻¹, a Kd [8] of 2 nM and a koff [9] of 0.09 s⁻¹.

B6: Fab clone 129(T8)(H8xE10)(4B) (Fab, V domains shown)
VH: QVQLVQSGAEVKKPGASVKVSCKASGYTFTSYRIHWVRQAPGQGLEWMGEIYPSNSRTNYNEKFKSRVTMTGDTSTSTVYMELSSLRSEDTAVYYCARKYYYGNSRRSWYFDVWGQGTTVTVS
VL: DIQMTQSPSSLSASVGDRVTITCRASESIDNYGISFLAWYQQKPGKAPKLLIYAASNRGSGVPSRFSGSGSGTDFTFTISSLQPEDIATYYCQQSKTVPRTFGQGTKLEIKR
B6 was tested, and the koff [7] was 0.002 s⁻¹, the Kd [8] was 4 nM and the koff [9] was 0.0289 s⁻¹ and 0.0627 s⁻¹.

B7: Fab A5, clone 129(T8)(H8xE10)(10B)(A5) (Fab, V domains shown)
VH: QVQLVQSGAEVKKPGASVKVSCKASGYTFTSYRIHWVRQAPGQGLEWMGEIYPSNARTNYNEKFKSRVTMTRDTSTSTVYMELSSLRSEDTAVYYCARKYYYGNTRRSWYFDVWGQGTTVTVS
VL: DIQMTQSPSSLSASVGDRVTITCRASESIDNYGISFLAWYQQKPGKAPKLLIYAASNRGSGVPSRFSGSGSGTDFTFTISSLQPEDIATYYCQQSKTVPRTFGQGTKLEIKR
notes: purified on Ni-NTA; also called A5 (Fab)
B7 showed a Kd [7] of 0.28 nM, a koff [7] of 0.00037 s⁻¹ and a kon [7] of 1.3e+06 M⁻¹ s⁻¹. For the same binder, the Kd [4] was 0.28 nM, the koff [4] was 0.00037 s⁻¹ and the Kd [9] was 19 nM. For the same binder, the koff [9] was 0.0267 s⁻¹, the kon [9] was 1.3e+06 M⁻¹ s⁻¹ and the “fold improvement of affinity over parent antibody 2256” value [3] was 200 fold.

Reference: patent US20090202526A1 (RINAT NEUROSCIENCE, published 2009)
